Experimental data: patent publication US20230235080A1, “TROPHOBLAST CELL-SURFACE ANTIGEN-2 (TROP-2) ANTIBODIES” (Bionecure Therapeutics, Inc., priority 2020, published 2023)
Read-outs that look alike come from different tables or passages of the source.

Columns and labels:
[1] = biological target: T1, human Trop-2 on Trop-2 positive cancer cells (human, UniProt P09758 27-323); test: cell-based or functional assay
T1 sequence (looked up): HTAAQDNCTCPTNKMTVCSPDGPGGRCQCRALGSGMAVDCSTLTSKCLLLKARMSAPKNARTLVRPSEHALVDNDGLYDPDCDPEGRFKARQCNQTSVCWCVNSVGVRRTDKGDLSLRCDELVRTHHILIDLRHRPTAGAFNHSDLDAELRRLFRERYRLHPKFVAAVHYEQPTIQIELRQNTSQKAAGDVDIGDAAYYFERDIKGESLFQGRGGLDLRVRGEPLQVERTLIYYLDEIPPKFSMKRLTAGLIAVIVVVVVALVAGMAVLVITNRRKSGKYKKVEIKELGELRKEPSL

[2] = biological target: T1, human Trop-2 on Trop-2 positive cancer …; test: cell-based or functional assay; remark: listed apart in the source
[3] = biological target: T2, human Trop-2-ECD-6His fusion protein (human, UniProt P09758 27-274); test: antigen binding ELISA on immobilized human Trop-2-ECD-6His
T2 construct: Expressed in a human 293 cell line; also called huTrop-2; human Trop-2 antigen
T2 sequence: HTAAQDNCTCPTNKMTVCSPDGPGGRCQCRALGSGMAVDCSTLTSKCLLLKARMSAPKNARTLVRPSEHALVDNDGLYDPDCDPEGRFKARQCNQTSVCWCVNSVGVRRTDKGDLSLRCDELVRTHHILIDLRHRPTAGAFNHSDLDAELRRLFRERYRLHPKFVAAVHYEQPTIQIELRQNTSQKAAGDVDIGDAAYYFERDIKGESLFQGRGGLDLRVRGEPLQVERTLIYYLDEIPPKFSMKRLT

[4] = biological target: T2, human Trop-2-ECD-6His fusion protein; test: as above; remark: listed apart in the source
[5] = biological target: T2, human Trop-2-ECD-6His fusion protein; test: BLI (Octet), antibody at 8 ug/ml, human Trop-2ECD-6His at 3.125-50 nM
Procedure: The binding affinity of the purified anti-Trop-2 IgGs to human Trop-2 protein were determined by Octet system based on Bio-Layer Interferometry (BLI) technique. BLI is a layer of molecules attached to the tip of an optic fiber which creates an interference pattern at the detector, any change in the number of molecules bound causes a measured shift in the pattern. Octet system enables real-time analysis for determination of affinity and kinetics from biomolecular interactions in 96-well microplates. […] A1X4 or A1,2X4 antibody was diluted and added to the assigned wells at a final concentration 8 µg/ml. The plate was put in the Octet system and assay was started. The data was analyzed using the Octet Data Acquisition Software (fortebio data analysis 10.0) to calculate an association rate constant Kon, a dissociation rate constant Koff, and a dissociation constant Kd (Kd = Koff/Kon).

[6] = biological target: T1, human Trop-2 on Trop-2 positive cancer …; test: flow cytometry on MDA-MB-468 cells, MFI at 4 °C against the antibody concentration (about 400 to 10000 ng/ml); Kd (µg/ml) printed beside the legend
Procedure: Internalizationi and degradation of anti-Trop-2 antibodies was measured by flow cytometry. In this study, fluorescent-conjugated secondary antibodies were used to detect the primary antibodies left on after internalization.
Next, either hRS7, or A1X4, or A1,2X4 antibody was added to cells in FACS buffer at concentrations of 400, 1000, 3000, or 10000 ng/ml, respectively, and incubated for 30 minutes at 4° C. After incubation, the cells were washed three times with FACS buffer to removed unbound antibody. The cells were then incubated at 37° C. with 5% CO₂ for antibody internalization. After 2 hours, the cells were dissociated with Trypsin and stained with fluorescent-conjugated goat anti-human IgG secondary antibodies for 30 minutes on ice in dark before being analyzed using Beckman flow cytometry system. The fluorescent intensity and cell binding percentage at each time point were analyzed by Beckman flow cytometric software. The amount of anti-Trop-2 antibodies internalized into cells at each concentration was determined using the following formula: % internalization rate = 100 × (MFI₄°C- MFI₃₇°C) / MFI₄°C

[7] = biological target: T1, human Trop-2 on Trop-2 positive cancer …; test: cell-based or functional assay; remark: listed apart in the source
[8] = system: Trop-2 positive breast cancer cell line MDA-MB-468; test: Internalization assay by flow cytometry (Example 2 protocol); type: cell-based, human; conditions: Table 9; second round of humanization of #118-2-5
Procedure: The chimeric IgG1 #118-2-5 and #125-1-5 were further evaluated by internalization assay using Trop-2 positive breast cancer cell line MDA-MB-468. MDA-MB-468 cells were seeded at 1×10^5 cell/well. Next, the chimeric or benchmark IgGs were added to cells in FACS buffer and incubated for 2 hours at 4° C. After incubation, the cells were washed to remove unbound antibody. The cells were then incubated at 37° C. After 2 hours, the cells were dissociated and stained with fluorescent-conjugated […] secondary antibodies for 30 minutes on ice in dark before being analyzed using Beckman flow cytometry system. The fluorescent intensity and cell binding percentage at each time point were analyzed by Beckman flow cytometric software. The amount of chimeric IgGs internalized into cells was determined using the following formula: % internalization rate = 100 × (MFI4°C - MFI37°C) / MFI4°C.

[9] = biological target: T3, human Trop-2-ECD-6His fusion protein (Homo sapiens, UniProt P09758); test: Antigen binding assay (ELISA) on immobilized Trop-2-ECD-6His
T3 construct: made in house; host or cells: human 293 cell line
T3 sequence (P09758 with tags, fused parts or gaps): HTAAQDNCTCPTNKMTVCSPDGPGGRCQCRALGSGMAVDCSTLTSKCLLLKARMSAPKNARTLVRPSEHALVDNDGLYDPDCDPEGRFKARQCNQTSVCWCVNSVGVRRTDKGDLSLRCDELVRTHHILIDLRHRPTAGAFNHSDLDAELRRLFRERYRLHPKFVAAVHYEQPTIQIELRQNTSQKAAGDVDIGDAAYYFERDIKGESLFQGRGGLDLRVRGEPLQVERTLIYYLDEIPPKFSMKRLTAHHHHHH

mouse Trop-2-His = biological target: T4, mouse Trop-2-His (mouse, UniProt Q8BGV3 25-270); test: ELISA on coated antigen, one antibody dilution (concentration not given); on the sheet OD405, detected by GAM/H-AP
T4 sequence (looked up): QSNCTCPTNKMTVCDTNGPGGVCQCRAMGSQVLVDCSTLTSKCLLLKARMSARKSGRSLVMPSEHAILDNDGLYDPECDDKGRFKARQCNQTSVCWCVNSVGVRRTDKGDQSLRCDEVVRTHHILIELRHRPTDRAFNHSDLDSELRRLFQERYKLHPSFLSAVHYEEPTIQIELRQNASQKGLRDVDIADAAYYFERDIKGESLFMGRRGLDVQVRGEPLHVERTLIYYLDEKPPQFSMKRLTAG

human EPCAM-His = biological target: T5, human EPCAM-His (human, UniProt P16422 24-265); test: as above
T5 construct: also called hEPCAM
T5 sequence (looked up): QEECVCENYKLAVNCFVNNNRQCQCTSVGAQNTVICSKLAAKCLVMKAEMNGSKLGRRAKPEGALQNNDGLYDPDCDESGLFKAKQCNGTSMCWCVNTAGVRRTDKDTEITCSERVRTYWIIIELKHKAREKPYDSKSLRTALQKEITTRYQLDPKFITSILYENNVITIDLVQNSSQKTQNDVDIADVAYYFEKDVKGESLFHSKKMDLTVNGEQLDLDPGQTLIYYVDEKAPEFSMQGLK

B1: benchmark antibody hRS7 (antibody, V domains shown)
VH: QVQLQQSGSELKKPGASVKVSCKASGYTFTNYGMNWVKQAPGQGLKWMGWINTYTGEPTYTDDFKGRFAFSLDTSVSTAYLQISSLKADDTAVYFCARGGFGSSYWYFDVWGQGSLVTVSS
VL: DIQLTQSPSSLSASVGDRVSITCKASQDVSIAVAWYQQKPGKAPKLLIYSASYRYTGVPDRFSGSGSGTDFTLTISSLQPEDFAVYYCQQHYITPLTFGAGTKVDIK
[1]
  Internalization rate (flow cytometry, MDA-MB-468 cells): 10.9%
[2]
  Internalization rate (flow cytometry, MDA-MB-468 cells): 23.9%
[3]
  EC50: 0.09 nM
[4]
  EC50: 0.062 nM
[5]
  Kd: 0.78 nM
  koff: 0.000244 s⁻¹
[6]
  Kd: 0.78 µg/mL

B2: A1X4-MMAE antibody-drug conjugate (antibody, V domains shown)
VH: QVQLQESGPGLVKPSETLSLTCTVSGFSLTSYGVNWIRQPPGKGLEWIGVMWAGGSTNYNSALMSRVTISVDTSKNQFSLKLSSVTAADTAVYYCARDENWDGAWFAYWGQGTLVTVSS
VL: DIVMTQSPDSLAVSLGERATINCKSSQSLLNSGTRKNYLAWYQQKPGQPPKLLISWASSRESGVPDRFSGSGSGTDFTLTISSLQAEDVAVYYCKQSYNLFTFGGGTKVEIKR
modifications: mc-vc-PABA-MMAE on the reduced antibody; chain and positions not stated
[7]
  in vitro cytotoxicity IC50, Trop-2-high BxPC-3 cells: < 1 nM

B3: A1,2X4-MMAE antibody-drug conjugate (antibody, V domains shown)
VH: QVQLQESGPGLVKPSETLSLTCTVSGFSLTSYGVNWIRQPPGKGLEWIGVMWAGGSTNYNSALMSRLTISKDTSKNQFSLKLSSVTAADTAVYYCARDENWDGAWFAYWGQGTLVTVSS
VL: DIVMTQSPDSLAVSLGERATINCKSSQSLLNSGTRKNYLAWYQQKPGQPPKLLISWASSRESGVPDRFSGSGSGTDFTLTISSLQAEDVAVYYCKQSYNLFTFGGGTKVEIKR
modifications: mc-vc-PABA-MMAE on the reduced antibody; chain and positions not stated
[7]
  in vitro cytotoxicity IC50, all cells that express different levels of Trop-2: < 1 nM

B4: HuA/Lu(X3): humanized #118-2-5, heavy chain HuA (SEQ ID NO: 23) with light chain Lu(X3) (SEQ ID NO: 36) (antibody, V domains shown)
VH: QVQLQESGPGLVKPSETLSLTCTVSGFSLTSYGVNWIRQPPGKGLEWIGVMWAGGSTNYNSALMSRVTISVDTSKNQFSLKLSSVTAADTAVYYCARDENWDGAWFAYWGQGTLVTVSS
VL: DIVMTQSHKFISTSVGDRVSITCKASQDVDTAVAWYQQKPGQSPKLLIHWASTRHTGVPDRFTGGGSGTDFTLTLSNVQSEDLADYFCQQYSTFPWTFGGGTRLEIK
[8]
  Internalization rate: 13.22%
[9]; Table 8, second round of humanization of #118-2-5
  EC50: 0.45 nM

B5: murine-human chimeric IgG1 #118-2-5 (antibody, V domains shown)
VH: QVQLKQSGPGLVAPSQSLSITCTVSGFSLTSYGVNWIRQPPGKGLEWLGVMWAGGSTNYNSALMSRLSISKDNSKSQVFLKMNSLQTDDTGMYYCARDENWDGAWFAYWGQGTLVTVSA
VL: DIQMTQSPSSLAVSAGEKVTMSCKSSQSLLNSGTRKNYLAWYQQKPGQSPKLLISWASSRESGVPDRFTGSGSGTDFTLTISSVQAEDLAVYYCKQSYNLFTFGGGTKLELKR
notes: Chimeric IgG1 expressed in HEK293-6E cells
Mouse Trop-2-His
  binding result: no binding
Human EPCAM-His
  binding result: no binding

B6: murine-human chimeric IgG1 #125-1-5 (antibody, V domains shown)
VH: QIQLVQSGPELVKPGASVKMSCKASGYTFTTYVIHWVKQKPGQGLEWIGYINPNNDGTKYNEKFKGKATLISDKSSTTAYMEVRGLTSEDSAVYYCARPHFETHAMDYWGQGTSVTVSS
VL: DIQMTQSPSSFSVSLGDSVTITCKASEDIFNRLAWYQQKPGNAPRLLISGATSLETGVPSRFSGGGSGKEYTLSITSLQNEDVATYYCQQYWNTWTFGGGTKLEIKR
notes: as for B5
Mouse Trop-2-His
  binding result: no binding
Human EPCAM-His
  binding result: no binding

B7: humanized #125-1-5 Hu1/Lu5 (antibody, V domains shown)
VH: QVQLVQSGAEVKKPGASVKVSCKASGYTFTTYVIHWVRQAPGQRLEWMGYINPNNDGTKYNEKFKGRVTITRDTSASTAYMELSSLRSEDTAVYYCARPHFETHAMDYWGQGTLVTVSS
VL: DIQMTQSPSSLSASVGDRVTITCKASEDIFNRLAWYQQKPGKAPKLLLYGATSLETGVPSRFSGSGSGTDYTLTISSLQPEDFATYYCQQYWNTWTFGQGTKVEIK
[2]
  Internalization rate (flow cytometry, MDA-MB-468 cells): 49.7%
[9]; Table 10, humanized #125-1-5 antibodies
  EC50: 0.016 nM
